{
  "source": "patent US20230212319A1",
  "about": "“NOVEL ANTIGEN BINDING DOMAINS AND SYNTHETIC ANTIGEN RECEPTORS INCORPORATING THE SAME” (University of Southern California, priority 2020, published 2023)",
  "data": [
    {"system": "RAJI cells", "assay": "JNG assay, co-culture with RAJI cells", "assay_type": "cell-based", "conditions": "JNG cells expressing construct, co-culture with Raji", "summary_of_the_method": "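Jurkat NFAT-GFP (JNG) cells stably transduced with SARs by lentivirus, with drug selection where the construct carried a resistance gene, then co-cultured with target cells at E:T ~1:2 for ~4–18 h. % GFP-positive cells measured by FACS against parental JNG; +/- to 5+ correspond to ~5–50% GFP-positive.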", "values": [
      {"molecule": "22243 (protein) MALPVTALLLPLALLLHAARPACQDKLTQWPKWLEGTGGGGSGGGGSGGGGSEFDIQMTQSPSSLSASVGDRVTITCKASDHINNWLAWYQQKPGQAPKLLIYGATTLETGVPSRFSGSGSGTDYTLTISSLQPEDFATYYCQQSWNTPWTFGQGTKLEIKRLEDLKNVFPPEVAVFEPSKAEIAHTQKATLVCLATGFYPDHVELSWWVNGKEVHSGVCTDPQPLKEQPALNDSRYCLSSRLRVSATFWQNPRNHFRCQVQFYGLSENDEWTQDRAKPVTQIVSAEAWGRADCGITSASYHQGVLSATILYEILLGKATLYAVLVSALVLMAMVKRKDSRGRAKRSGSGATNFSLLKQAGDVEENPGPTSATMDWIWRILFLVGAATGAHSGPQVQLQESGGGLAQAGGSLRLSCAASGRTFSMGWFRQAPGKEREFVAAITYSGGSPYYASSVRGRFTISRDNAKNTVYLQMNSLKPEDTAVYYCAANPTYGSDWNAENWGQGTQVTVSSGSGGGGSGGGGSGGGGSFEQVQLQQPGAELVKPGASVKMSCKASGYAFSSYWINWMKQKPGQGLEWIGQIYPGDGDTNYNGKFKGRATLTADTSSSTAYMQLSSLTSEDSAVYFCARSITTVVGCAMDYWGQGTSVTVSSTRIQNPDPAVYQLRDSKSSDKSVCLFTDFDSQTNVSQSKDSDVYITDKCVLDMRSMDFKSNSAVAWSNKSDFACANAFNNSIIPEDTFFPSSDVPCDVKLVEKSFETDTNLNFQNLSVIGFRILLLKVAGFNLLMTLRLWSSRAKRSGSGVKQTLNFDLLKLAGDVESNPGPSRGHMTEYKPTVRLATRDDVPRAVRTLAAAFADYPATRHTVDPDRHIERVTELQELFLTRVGLDIGKVWVADDGAAVAVWTTPESVEAGAVFAEIGPRMAELSGSRLAAQQQMEGLLAPHRPKEPAWFLATVGVSPDHQGKGLGSAVVLPGVEAAERAGVPAFLETSAPRNLPFYERLGFTVTADVEVPEGPRTWCMTRKPGA", "NFAT-GFP ASSAY: Raji": "Raji (3+) (refer to approximately 5%, 10%, 20%, 30%, 40% and 50% GFP positive cells)"},
      {"molecule": "22214 (protein) MALPVTALLLPLALLLHAARPACPYINIYNAEPANPSEKNSPTQYAYGTGPQGIFGQPGYINEFDIQMTQSPSSLSASVGDRVTITCKASDHINNWLAWYQQKPGQAPKLLIYGATTLETGVPSRFSGSGSGTDYTLTISSLQPEDFATYYCQQSWNTPWTFGQGTKLEIKRLEDLKNVFPPEVAVFEPSKAEIAHTQKATLVCLATGFYPDHVELSWWVNGKEVHSGVCTDPQPLKEQPALNDSRYCLSSRLRVSATFWQNPRNHFRCQVQFYGLSENDEWTQDRAKPVTQIVSAEAWGRADCGITSASYHQGVLSATILYEILLGKATLYAVLVSALVLMAMVKRKDSRGRAKRSGSGATNFSLLKQAGDVEENPGPTSATMDWIWRILFLVGAATGAHSGPQVQLQESGGGLAQAGGSLRLSCAASGRTFSMGWFRQAPGKEREFVAAITYSGGSPYYASSVRGRFTISRDNAKNTVYLQMNSLKPEDTAVYYCAANPTYGSDWNAENWGQGTQVTVSSGSGGGGSGGGGSGGGGSFEQVQLQQPGAELVKPGASVKMSCKASGYAFSSYWINWMKQKPGQGLEWIGQIYPGDGDTNYNGKFKGRATLTADTSSSTAYMQLSSLTSEDSAVYFCARSITTVVGCAMDYWGQGTSVTVSSTRIQNPDPAVYQLRDSKSSDKSVCLFTDFDSQTNVSQSKDSDVYITDKCVLDMRSMDFKSNSAVAWSNKSDFACANAFNNSIIPEDTFFPSSDVPCDVKLVEKSFETDTNLNFQNLSVIGFRILLLKVAGFNLLMTLRLWSSRAKRSGSGVKQTLNFDLLKLAGDVESNPGPSRGHMTEYKPTVRLATRDDVPRAVRTLAAAFADYPATRHTVDPDRHIERVTELQELFLTRVGLDIGKVWVADDGAAVAVWTTPESVEAGAVFAEIGPRMAELSGSRLAAQQQMEGLLAPHRPKEPAWFLATVGVSPDHQGKGLGSAVVLPGVEAAERAGVPAFLETSAPRNLPFYERLGFTVTADVEVPEGPRTWCMTRKPGA", "NFAT-GFP ASSAY: Raji": "Raji (+) (refer to approximately 5%, 10%, 20%, 30%, 40% and 50% GFP positive cells)"},
      {"molecule": "22247 (protein) MALPVTALLLPLALLLHAARPACPQLGPYELWELSHGTGAVVRGAEFDIQMTQSPSSLSASVGDRVTITCKASDHINNWLAWYQQKPGQAPKLLIYGATTLETGVPSRFSGSGSGTDYTLTISSLQPEDFATYYCQQSWNTPWTFGQGTKLEIKRLEDLKNVFPPEVAVFEPSKAEIAHTQKATLVCLATGFYPDHVELSWWVNGKEVHSGVCTDPQPLKEQPALNDSRYCLSSRLRVSATFWQNPRNHFRCQVQFYGLSENDEWTQDRAKPVTQIVSAEAWGRADCGITSASYHQGVLSATILYEILLGKATLYAVLVSALVLMAMVKRKDSRGRAKRSGSGATNFSLLKQAGDVEENPGPTSATMDWIWRILFLVGAATGAHSGPQVQLQESGGGLAQAGGSLRLSCAASGRTFSMGWFRQAPGKEREFVAAITYSGGSPYYASSVRGRFTISRDNAKNTVYLQMNSLKPEDTAVYYCAANPTYGSDWNAENWGQGTQVTVSSGSGGGGSGGGGSGGGGSFEQVQLQQPGAELVKPGASVKMSCKASGYAFSSYWINWMKQKPGQGLEWIGQIYPGDGDTNYNGKFKGRATLTADTSSSTAYMQLSSLTSEDSAVYFCARSITTVVGCAMDYWGQGTSVTVSSTRIQNPDPAVYQLRDSKSSDKSVCLFTDFDSQTNVSQSKDSDVYITDKCVLDMRSMDFKSNSAVAWSNKSDFACANAFNNSIIPEDTFFPSSDVPCDVKLVEKSFETDTNLNFQNLSVIGFRILLLKVAGFNLLMTLRLWSSRAKRSGSGVKQTLNFDLLKLAGDVESNPGPSRGHMTEYKPTVRLATRDDVPRAVRTLAAAFADYPATRHTVDPDRHIERVTELQELFLTRVGLDIGKVWVADDGAAVAVWTTPESVEAGAVFAEIGPRMAELSGSRLAAQQQMEGLLAPHRPKEPAWFLATVGVSPDHQGKGLGSAVVLPGVEAAERAGVPAFLETSAPRNLPFYERLGFTVTADVEVPEGPRTWCMTRKPGA", "NFAT-GFP ASSAY: Raji": "Raji (2+) (refer to approximately 5%, 10%, 20%, 30%, 40% and 50% GFP positive cells)"},
      {"molecule": "22248 (protein) MALPVTALLLPLALLLHAARPDIQMTQSPSSLSASVGDRVTITCKASDHINNWLAWYQQKPGQAPKLLIYGATTLETGVPSRFSGSGSGTDYTLTISSLQPEDFATYYCQQSWNTPWTFGQGTKLEIKRLEDLKNVFPPEVAVFEPSEAEISHTQKATLVCLATGFYPDHVELSWWVNGKEVHSGVCTDPQPLKEQPALNDSRYCLSSRLRVSATFWQNPRNHFRCQVQFYGLSENDEWTQDRAKPVTQIVSAEAWGRADCGFTSESYQQGVLSATILYEILLGKATLYAVLVSALVLMAMVKRKDSRGRAKRSGSGATNFSLLKQAGDVEENPGPTSATMDWIWRILFLVGAATGAHSGPQLGPYELWELSHGSGPLGIAGIFEQVQLQQPGAELVKPGASVKMSCKASGYAFSSYWINWMKQKPGQGLEWIGQIYPGDGDTNYNGKFKGRATLTADTSSSTAYMQLSSLTSEDSAVYFCARSITTVVGCAMDYWGQGTSVTVSSTRIQNPDPAVYQLRDSKSSDKSVCLFTDFDSQTNVSQSKDSDVYITDKCVLDMRSMDFKSNSAVAWSNKSDFACANAFNNSIIPEDTFFPSPESSCDVKLVEKSFETDTNLNFQNLSVIGFRILLLKVAGFNLLMTLRLWSSRAKRSGSGVKQTLNFDLLKLAGDVESNPGPSRGHMTEYKPTVRLATRDDVPRAVRTLAAAFADYPATRHTVDPDRHIERVTELQELFLTRVGLDIGKVWVADDGAAVAVWTTPESVEAGAVFAEIGPRMAELSGSRLAAQQQMEGLLAPHRPKEPAWFLATVGVSPDHQGKGLGSAVVLPGVEAAERAGVPAFLETSAPRNLPFYERLGFTVTADVEVPEGPRTWCMTRKPGA", "NFAT-GFP ASSAY: Raji": "Raji (3+) (refer to approximately 5%, 10%, 20%, 30%, 40% and 50% GFP positive cells)"},
      {"molecule": "22244 (protein) MALPVTALLLPLALLLHAARPDIQMTQSPSSLSASVGDRVTITCKASDHINNWLAWYQQKPGQAPKLLIYGATTLETGVPSRFSGSGSGTDYTLTISSLQPEDFATYYCQQSWNTPWTFGQGTKLEIKRLEDLKNVFPPEVAVFEPSEAEISHTQKATLVCLATGFYPDHVELSWWVNGKEVHSGVCTDPQPLKEQPALNDSRYCLSSRLRVSATFWQNPRNHFRCQVQFYGLSENDEWTQDRAKPVTQIVSAEAWGRADCGFTSESYQQGVLSATILYEILLGKATLYAVLVSALVLMAMVKRKDSRGRAKRSGSGATNFSLLKQAGDVEENPGPTSATMDWIWRILFLVGAATGAHSGPSACPYSNPSLCSGSGGGGSGGGGSGGGGSFEQVQLQQPGAELVKPGASVKMSCKASGYAFSSYWINWMKQKPGQGLEWIGQIYPGDGDTNYNGKFKGRATLTADTSSSTAYMQLSSLTSEDSAVYFCARSITTVVGCAMDYWGQGTSVTVSSTRIQNPDPAVYQLRDSKSSDKSVCLFTDFDSQTNVSQSKDSDVYITDKCVLDMRSMDFKSNSAVAWSNKSDFACANAFNNSIIPEDTFFPSPESSCDVKLVEKSFETDTNLNFQNLSVIGFRILLLKVAGFNLLMTLRLWSSRAKRSGSGVKQTLNFDLLKLAGDVESNPGPSRGHMTEYKPTVRLATRDDVPRAVRTLAAAFADYPATRHTVDPDRHIERVTELQELFLTRVGLDIGKVWVADDGAAVAVWTTPESVEAGAVFAEIGPRMAELSGSRLAAQQQMEGLLAPHRPKEPAWFLATVGVSPDHQGKGLGSAVVLPGVEAAERAGVPAFLETSAPRNLPFYERLGFTVTADVEVPEGPRTWCMTRKPGA", "NFAT-GFP ASSAY: Raji": "Raji (+/-) (refer to approximately 5%, 10%, 20%, 30%, 40% and 50% GFP positive cells)"},
      {"molecule": "22211 (protein) MALPVTALLLPLALLLHAARPDIQMTQSPSSLSASVGDRVTITCKASDHINNWLAWYQQKPGQAPKLLIYGATTLETGVPSRFSGSGSGTDYTLTISSLQPEDFATYYCQQSWNTPWTFGQGTKLEIKRLEDLKNVFPPEVAVFEPSEAEISHTQKATLVCLATGFYPDHVELSWWVNGKEVHSGVCTDPQPLKEQPALNDSRYCLSSRLRVSATFWQNPRNHFRCQVQFYGLSENDEWTQDRAKPVTQIVSAEAWGRADCGFTSESYQQGVLSATILYEILLGKATLYAVLVSALVLMAMVKRKDSRGRAKRSGSGATNFSLLKQAGDVEENPGPTSATMDWIWRILFLVGAATGAHSGPQLGPYELWELSHGSGGGGSGGGGSGGGGSFEQVQLQQPGAELVKPGASVKMSCKASGYAFSSYWINWMKQKPGQGLEWIGQIYPGDGDTNYNGKFKGRATLTADTSSSTAYMQLSSLTSEDSAVYFCARSITTVVGCAMDYWGQGTSVTVSSTRIQNPDPAVYQLRDSKSSDKSVCLFTDFDSQTNVSQSKDSDVYITDKCVLDMRSMDFKSNSAVAWSNKSDFACANAFNNSIIPEDTFFPSPESSCDVKLVEKSFETDTNLNFQNLSVIGFRILLLKVAGFNLLMTLRLWSSRAKRSGSGVKQTLNFDLLKLAGDVESNPGPSRGHMTEYKPTVRLATRDDVPRAVRTLAAAFADYPATRHTVDPDRHIERVTELQELFLTRVGLDIGKVWVADDGAAVAVWTTPESVEAGAVFAEIGPRMAELSGSRLAAQQQMEGLLAPHRPKEPAWFLATVGVSPDHQGKGLGSAVVLPGVEAAERAGVPAFLETSAPRNLPFYERLGFTVTADVEVPEGPRTWCMTRKPGA", "NFAT-GFP ASSAY: Raji": "2+ (refer to approximately 5%, 10%, 20%, 30%, 40% and 50% GFP positive cells)"}
    ]}
  ]
}
